Target: HPV16 L1 pentamers (L1 assembly mutant C428S) (HPV16)
Experiment: electron microscopy

For “HPV16 L1 pentamers (L1 assembly mutant C428S) (natural protein)”, the stoichiometry N was 5.
